Data reported in PMC3871595, “Structure Based Identification and Characterization of Flavonoids That Disrupt Human Papillomavirus-16 E6 Function” (PLoS ONE, 2013).

Biological target: T1, GST-HPV-16 E6 (human papillomavirus type 16, UniProt P03126 1-158)
T1 construct: early protein 6 (E6) of human papillomavirus type 16; also called GST-E6; GST-16 E6; source: E. coli BL21, purified on glutathione Sepharose beads and kept on the beads
Experiment: filter plate bead binding assay (BAP chemiluminescence); dissociation rate experiment: GST-E6 and E6AP-BAP bound to equilibrium, unbound E6AP-BAP washed away, decrease in BAP signal at each time point
Details: both partners purified

T1 sequence (P03126 whole entry): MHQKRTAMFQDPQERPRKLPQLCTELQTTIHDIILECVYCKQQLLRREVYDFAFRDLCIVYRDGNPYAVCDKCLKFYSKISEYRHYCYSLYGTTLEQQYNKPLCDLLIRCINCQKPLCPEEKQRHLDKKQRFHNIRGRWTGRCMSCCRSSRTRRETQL

B1: E6AP-BAP fusion protein (E6AP residues 371-440 fused to bacterial alkaline phosphatase) (domain or fragment, UniProt Q05086 371-440, looked up)
chain: ASKCLKMVYYANVVGGEVDTNHNEEDDEEPIPESSELTLQELLGEERRNKKGPRVDPLETELGVKTLDCR
notes: also called FLAG-tagged E6AP-BAP; source: E. coli BL21, purified (anti-FLAG resin, glycine pH 2.5 elution)
In the case of B1, the “half-life of ligand dissociation (t1/2)” value is reported as 3.6 min.
